Where two headings read alike, the source gives them in different places. Values belong to the binder of their own block, whether it stands above or below them.
How the values were obtained:
[1] = molecular target: T1, c-MET on human target cells (human, UniProt P08581 25-1390); assay: cell-based or functional assay
[2] = molecular target: T1, c-MET on human target cells; assay: cell-based or functional assay; remark: listed apart in the source
[3] = molecular target: T1, c-MET on human target cells; assay: cell-based or functional assay; remark: listed apart in the source
[4] = molecular target: T1, c-MET on human target cells; assay: cell-based or functional assay; remark: listed apart in the source
[5] = molecular target: T2, AF647 labeled c-met protein (UniProt P08581 25-932, limits assumed, labeled with AlexaFluor 647 (AF647)); assay: flow cytometry, AF647-labeled c-met protein titrated on CAR-T cells (Round 1)
T2 construct: Soluble labeled c-met protein titrated on CAR-T cells
T2 sequence (P08581 25-932 limits assumed): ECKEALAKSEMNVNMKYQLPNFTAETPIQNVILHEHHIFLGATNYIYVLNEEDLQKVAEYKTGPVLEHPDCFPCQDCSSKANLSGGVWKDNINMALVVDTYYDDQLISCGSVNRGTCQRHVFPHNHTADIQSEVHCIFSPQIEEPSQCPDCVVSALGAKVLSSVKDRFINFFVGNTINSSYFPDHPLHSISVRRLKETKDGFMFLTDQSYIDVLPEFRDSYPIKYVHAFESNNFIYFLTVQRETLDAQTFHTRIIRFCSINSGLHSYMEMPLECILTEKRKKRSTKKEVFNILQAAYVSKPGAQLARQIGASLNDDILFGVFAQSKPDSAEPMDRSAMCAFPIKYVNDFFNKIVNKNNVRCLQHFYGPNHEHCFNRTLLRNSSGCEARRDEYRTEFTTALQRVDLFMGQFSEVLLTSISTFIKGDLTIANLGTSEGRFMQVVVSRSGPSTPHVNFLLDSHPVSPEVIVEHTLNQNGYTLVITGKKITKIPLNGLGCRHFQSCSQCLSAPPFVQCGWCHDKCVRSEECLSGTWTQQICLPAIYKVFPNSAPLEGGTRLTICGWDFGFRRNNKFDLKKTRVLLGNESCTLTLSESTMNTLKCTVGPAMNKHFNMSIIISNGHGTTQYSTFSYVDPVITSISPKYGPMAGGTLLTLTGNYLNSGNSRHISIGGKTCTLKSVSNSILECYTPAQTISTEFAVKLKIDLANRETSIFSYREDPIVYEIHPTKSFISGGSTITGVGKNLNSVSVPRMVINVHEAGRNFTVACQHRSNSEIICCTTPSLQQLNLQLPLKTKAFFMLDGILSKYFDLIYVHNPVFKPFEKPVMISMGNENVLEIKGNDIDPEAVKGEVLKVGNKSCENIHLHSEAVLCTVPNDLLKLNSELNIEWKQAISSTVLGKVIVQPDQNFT
Procedure: (§1) Binding of labeled c-MET to CAR-T cells expressing the affinity tuned c-MET scFvs was evaluated by transducing lentivirus anti-c-MET CAR particles into human T cells to form c-MET CAR-T cells incubated with AF647-labeled c-MET. […] Following a 48 hr. incubation at 37° C., the culture media was brought up to […] per well and incubated at 37° C. for 10 days.
(§2) Cells were stained on ice for 30 mins and then washed with PBS. After washing, residually bound protein on CAR T cells were measured on a flow cytometer (Beckman, CytoFLEX®). The resulting binding data was fit using a non-linear regression analysis on GraphPad Prism to calculate half effective dose concentration (EC₅₀) values. The results of this analysis are shown in FIGS. 2-5 and Tables 2-5 below.

[6] = molecular target: T2, AF647 labeled c-met protein; assay: flow cytometry, AF647-labeled c-met protein titrated on CAR-T cells (Round 2)
Procedure: as §1, §2

[7] = molecular target: T1, c-MET on human target cells; assay: cell-based or functional assay; remark: listed apart in the source
[8] = molecular target: T1, c-MET on human target cells; assay: cell-based or functional assay; remark: listed apart in the source
[9] = molecular target: T1, c-MET on human target cells; assay: cell-based or functional assay; remark: listed apart in the source
[10] = molecular target: T1, c-MET on human target cells; assay: cell-based or functional assay; remark: listed apart in the source
[11] = molecular target: T1, c-MET on human target cells; assay: cell-based or functional assay; remark: listed apart in the source
[12] = molecular target: T1, c-MET on human target cells; assay: cell-based or functional assay; remark: listed apart in the source
[13] = molecular target: T1, c-MET on human target cells; assay: cell-based or functional assay; remark: listed apart in the source
[14] = molecular target: T1, c-MET on human target cells; assay: cell-based or functional assay; remark: listed apart in the source
[15] = molecular target: T1, c-MET on human target cells; assay: cell-based or functional assay; remark: listed apart in the source
[16] = molecular target: T1, c-MET on human target cells; assay: cell-based or functional assay; remark: listed apart in the source
[17] = molecular target: T1, c-MET on human target cells; assay: cell-based or functional assay; remark: listed apart in the source
[18] = molecular target: T2, AF647 labeled c-met protein; assay: flow cytometry, EC50 relative to parental Affy7 CAR-T cells (Round 2)
Procedure: as §1, §2

T1 sequence (P08581 25-1390): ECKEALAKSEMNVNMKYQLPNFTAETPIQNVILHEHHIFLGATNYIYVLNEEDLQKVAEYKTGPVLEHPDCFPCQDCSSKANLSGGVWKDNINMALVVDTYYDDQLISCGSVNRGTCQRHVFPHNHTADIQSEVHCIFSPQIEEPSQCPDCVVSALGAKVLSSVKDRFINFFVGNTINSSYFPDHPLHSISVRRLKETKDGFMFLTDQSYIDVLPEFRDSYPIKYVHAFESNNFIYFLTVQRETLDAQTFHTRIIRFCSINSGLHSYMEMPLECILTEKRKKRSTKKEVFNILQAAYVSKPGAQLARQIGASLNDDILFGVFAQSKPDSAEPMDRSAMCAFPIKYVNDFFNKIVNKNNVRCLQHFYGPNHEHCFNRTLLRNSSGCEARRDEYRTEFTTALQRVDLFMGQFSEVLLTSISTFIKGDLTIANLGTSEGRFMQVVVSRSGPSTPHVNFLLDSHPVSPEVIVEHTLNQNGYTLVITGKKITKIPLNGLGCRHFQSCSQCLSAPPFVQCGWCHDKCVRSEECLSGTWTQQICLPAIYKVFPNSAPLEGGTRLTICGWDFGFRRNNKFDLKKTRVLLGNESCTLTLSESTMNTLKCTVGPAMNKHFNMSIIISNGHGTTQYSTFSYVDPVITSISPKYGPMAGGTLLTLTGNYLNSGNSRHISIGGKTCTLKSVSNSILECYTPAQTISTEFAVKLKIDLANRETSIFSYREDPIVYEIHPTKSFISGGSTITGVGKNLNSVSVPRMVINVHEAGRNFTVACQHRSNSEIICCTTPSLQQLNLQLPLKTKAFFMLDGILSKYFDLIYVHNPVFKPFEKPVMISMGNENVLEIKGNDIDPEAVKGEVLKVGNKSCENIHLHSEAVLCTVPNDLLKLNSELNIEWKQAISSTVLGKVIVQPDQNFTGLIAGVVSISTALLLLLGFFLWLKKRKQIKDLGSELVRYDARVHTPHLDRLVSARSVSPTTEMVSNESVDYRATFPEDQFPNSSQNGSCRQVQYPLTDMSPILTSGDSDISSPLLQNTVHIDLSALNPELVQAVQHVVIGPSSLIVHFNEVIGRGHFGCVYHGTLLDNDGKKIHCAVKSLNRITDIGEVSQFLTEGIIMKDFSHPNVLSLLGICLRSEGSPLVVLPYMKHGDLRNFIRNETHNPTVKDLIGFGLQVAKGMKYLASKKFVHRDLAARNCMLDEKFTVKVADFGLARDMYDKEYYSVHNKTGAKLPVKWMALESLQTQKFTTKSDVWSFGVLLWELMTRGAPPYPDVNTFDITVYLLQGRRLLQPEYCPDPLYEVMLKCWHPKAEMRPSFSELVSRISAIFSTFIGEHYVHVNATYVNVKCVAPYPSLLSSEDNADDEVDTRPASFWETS

EC50 [5]: 20 nM
EC50 [6]: 20 nM
B1: Affy6 CAR (control) (other)
chain: GSEQKLISEEDLGSQVQLVQSGAEVKKPGASVKVSCKASGYIFTAYTMHWVRQAPGQGLEWMGWIKPNNGLANYAQKFQGRVTMTRDTSISTAYMELSRLRSDDTAVYYCARSEITTEFDYWGQGTLVTVSSGGGGSGGGGSGGGGSDIVLTQSPDSLAVSLGERATINCKSSESVDSYANSFMHWYQQKPGQPPKLLIYRASTRESGVPDRFSGSGSRTDFTLTISSLQAEDVAVYYCQQSKEDPLTFGGGTKVEIKASTTTPAPRPPTPAPTIASQPLSLRPEACRPAAGGAVHTRGLDFACDFWVLVVVGGVLACYSLLVTVAFIIFWVRSKRSRLLHSDYMNMTPRRPGPTRKHYQPYAPPRDFAAYRSLRVKFSRSADAPAYQQGQNQLYNELNLGRREEYDVLDKRRGRDPEMGGKPRRKNPQEGLYNELQKDKMAEAYSEIGMKGERRRGKGHDGLYQGLSTATKDTYDALHMQALPPR
notes: Chimeric antigen receptor on transduced human T cells; P2A remnant not included; also called parent Affy6 CAR-T cells; parental Affy6
cytotoxicity, Normal Human Lung Cells, 8 hrs [1]: 38.4
cytotoxicity, Normal Human Lung Cells, 16 hrs [1]: 47.1
cytotoxicity, Normal Human Lung Cells, 24 hrs [1]: 54.7
cytotoxicity, Normal Human Lung Cells, 32 hrs [1]: 63.1
cytotoxicity, Normal Human Lung Cells, 40 hrs [1]: 76.4
cytotoxicity, Normal Human Lung Cells, 48 hrs [1]: 85.2
cytotoxicity, Normal Human Liver Cells, 8 hrs [2]: 28.4
cytotoxicity, Normal Human Liver Cells, 16 hrs [2]: 47.1
cytotoxicity, Normal Human Liver Cells, 24 hrs [2]: 59
cytotoxicity, Normal Human Liver Cells, 32 hrs [2]: 67.9
cytotoxicity, Normal Human Liver Cells, 40 hrs [2]: 76.8
cytotoxicity, Normal Human Liver Cells, 48 hrs [2]: 83.6
cytotoxicity, Normal Human Kidney Cells, 8 hrs [3]: 25.7
cytotoxicity, Normal Human Kidney Cells, 16 hrs [3]: 45.4
cytotoxicity, Normal Human Kidney Cells, 24 hrs [3]: 57
cytotoxicity, Normal Human Kidney Cells, 32 hrs [3]: 65.5
cytotoxicity, Normal Human Kidney Cells, 40 hrs [3]: 73
cytotoxicity, Normal Human Kidney Cells, 48 hrs [3]: 78.8
cytotoxicity, Normal Human Colon Cells, 8 hrs [4]: 24.6
cytotoxicity, Normal Human Colon Cells, 16 hrs [4]: 37.7
cytotoxicity, Normal Human Colon Cells, 24 hrs [4]: 46.4
cytotoxicity, Normal Human Colon Cells, 32 hrs [4]: 57.3
cytotoxicity, Normal Human Colon Cells, 40 hrs [4]: 72.3
cytotoxicity, Normal Human Colon Cells, 48 hrs [4]: 83.8

EC50 [5]: 50 nM
EC50 [6]: 100 nM
B2: Affy7 CAR (control) (other)
chain: GSEQKLISEEDLGSQVQLQQSGPELVRPGASVKMSCRASGYTFTSYWLHWVKQRPGQGLEWIGMIDPSNSDTRFNPNFKDKATLNVDRSSNTAYMLLSSLTSADSAVYYCATYGSYVSPLDYWGQGTSVTVSSGGGGSGGGGSGGGGSDIMMSQSPSSLTVSVGEKVTVSCKSSQSLLYTSSQKNYLAWYQQKPGQSPKLLIYWASTRESGVPDRFTGSGSGTDFTLTITSVKADDLAVYYCQQYYAYPWTFGGGTKLEIKRASTTTPAPRPPTPAPTIASQPLSLRPEACRPAAGGAVHTRGLDFACDFWVLVVVGGVLACYSLLVTVAFIIFWVRSKRSRLLHSDYMNMTPRRPGPTRKHYQPYAPPRDFAAYRSLRVKFSRSADAPAYQQGQNQLYNELNLGRREEYDVLDKRRGRDPEMGGKPRRKNPQEGLYNELQKDKMAEAYSEIGMKGERRRGKGHDGLYQGLSTATKDTYDALHMQALPPR
notes: residues of P2A left at the intracellular C-terminus are not included; also called parent Affy7 CAR-T cells; parental Affy7
percent cytotoxicity, SNU638, 24 hrs [7]: 78.6%
percent cytotoxicity, SNU638, 48 hrs [7]: 95.9%
percent cytotoxicity, SNU638, 72 hrs [7]: 99.5%
percent cytotoxicity, Hs746T, 24 hrs [8]: 87.1%
percent cytotoxicity, Hs746T, 48 hrs [8]: 97.6%
percent cytotoxicity, Hs746T, 72 hrs [8]: 99.2%
percent cytotoxicity, H1993, 24 hrs [9]: 85.6%
percent cytotoxicity, H1993, 48 hrs [9]: 97.7%
percent cytotoxicity, H1993, 72 hrs [9]: 99.6%
cytotoxicity, Normal Human Lung Cells, 8 hrs [10]: 14.7
cytotoxicity, Normal Human Lung Cells, 16 hrs [10]: 33.3
cytotoxicity, Normal Human Lung Cells, 24 hrs [10]: 50.7
cytotoxicity, Normal Human Lung Cells, 32 hrs [10]: 57.1
cytotoxicity, Normal Human Lung Cells, 40 hrs [10]: 59.9
cytotoxicity, Normal Human Lung Cells, 47 hrs [10]: 56.5
cytotoxicity, Normal Human Lung Cells, 8 hrs [11]: 31.8
cytotoxicity, Normal Human Lung Cells, 16 hrs [11]: 35.7
cytotoxicity, Normal Human Lung Cells, 24 hrs [11]: 43.2
cytotoxicity, Normal Human Lung Cells, 32 hrs [11]: 55.8
cytotoxicity, Normal Human Lung Cells, 40 hrs [11]: 67.5
cytotoxicity, Normal Human Lung Cells, 48 hrs [11]: 76
cytotoxicity, Normal Human Liver Cells, 8 hrs [12]: 17.7
cytotoxicity, Normal Human Liver Cells, 16 hrs [12]: 30.1
cytotoxicity, Normal Human Liver Cells, 24 hrs [12]: 38.6
cytotoxicity, Normal Human Liver Cells, 32 hrs [12]: 46.2
cytotoxicity, Normal Human Liver Cells, 40 hrs [12]: 59.1
cytotoxicity, Normal Human Liver Cells, 48 hrs [12]: 68.7
cytotoxicity, Normal Human Liver Cells, 8 hrs [13]: 23.4
cytotoxicity, Normal Human Liver Cells, 16 hrs [13]: 36.9
cytotoxicity, Normal Human Liver Cells, 24 hrs [13]: 50.7
cytotoxicity, Normal Human Liver Cells, 32 hrs [13]: 64
cytotoxicity, Normal Human Liver Cells, 40 hrs [13]: 71.2
cytotoxicity, Normal Human Liver Cells, 48 hrs [13]: 73.4
cytotoxicity, Normal Human Kidney Cells, 8 hrs [14]: 12.5
cytotoxicity, Normal Human Kidney Cells, 16 hrs [14]: 27.2
cytotoxicity, Normal Human Kidney Cells, 24 hrs [14]: 32.4
cytotoxicity, Normal Human Kidney Cells, 32 hrs [14]: 36.9
cytotoxicity, Normal Human Kidney Cells, 40 hrs [14]: 47.4
cytotoxicity, Normal Human Kidney Cells, 48 hrs [14]: 59
cytotoxicity, Normal Human Kidney Cells, 8 hrs [15]: 32.7
cytotoxicity, Normal Human Kidney Cells, 16 hrs [15]: 43.5
cytotoxicity, Normal Human Kidney Cells, 24 hrs [15]: 53.8
cytotoxicity, Normal Human Kidney Cells, 32 hrs [15]: 61.2
cytotoxicity, Normal Human Kidney Cells, 40 hrs [15]: 70.2
cytotoxicity, Normal Human Kidney Cells, 48 hrs [15]: 76.5
cytotoxicity, Normal Human Colon Cells, 8 hrs [16]: 13.8
cytotoxicity, Normal Human Colon Cells, 16 hrs [16]: 29.3
cytotoxicity, Normal Human Colon Cells, 24 hrs [16]: 34.9
cytotoxicity, Normal Human Colon Cells, 32 hrs [16]: 42.8
cytotoxicity, Normal Human Colon Cells, 40 hrs [16]: 54.1
cytotoxicity, Normal Human Colon Cells, 48 hrs [16]: 60.1
cytotoxicity, Normal Human Colon Cells, 8 hrs [17]: 28.5
cytotoxicity, Normal Human Colon Cells, 16 hrs [17]: 33.9
cytotoxicity, Normal Human Colon Cells, 24 hrs [17]: 43.2
cytotoxicity, Normal Human Colon Cells, 32 hrs [17]: 57
cytotoxicity, Normal Human Colon Cells, 40 hrs [17]: 69.7
cytotoxicity, Normal Human Colon Cells, 48 hrs [17]: 79.4

Fold Change [18]: 1830 fold
EC50 [6]: 183000 nM
B3: Affy7-Y6I CAR (other)
chain: GSEQKLISEEDLGSQVQLQQSGPELVRPGASVKMSCRASGYTFTSYWLHWVKQRPGQGLEWIGMIDPSNSDTRFNPNFKDKATLNVDRSSNTAYMLLSSLTSADSAVYYCATIGSYVSPLDYWGQGTSVTVSSGGGGSGGGGSGGGGSDIMMSQSPSSLTVSVGEKVTVSCKSSQSLLYTSSQKNYLAWYQQKPGQSPKLLIYWASTRESGVPDRFTGSGSGTDFTLTITSVKADDLAVYYCQQYYAYPWTFGGGTKLEIKRASTTTPAPRPPTPAPTIASQPLSLRPEACRPAAGGAVHTRGLDFACDFWVLVVVGGVLACYSLLVTVAFIIFWVRSKRSRLLHSDYMNMTPRRPGPTRKHYQPYAPPRDFAAYRSLRVKFSRSADAPAYQQGQNQLYNELNLGRREEYDVLDKRRGRDPEMGGKPRRKNPQEGLYNELQKDKMAEAYSEIGMKGERRRGKGHDGLYQGLSTATKDTYDALHMQALPPR
notes: CAR on transduced human T cells; Y to I in HC CDR3; P2A remnant not included; also called MycT-Affy7-Y6I CAR-SSTR2
percent cytotoxicity, SNU638, 24 hrs [7]: 67%
percent cytotoxicity, SNU638, 48 hrs [7]: 83.6%
percent cytotoxicity, SNU638, 72 hrs [7]: 93.2%
percent cytotoxicity, Hs746T, 24 hrs [8]: 1.5%
percent cytotoxicity, Hs746T, 48 hrs [8]: 45.4%
percent cytotoxicity, Hs746T, 72 hrs [8]: 69.4%
percent cytotoxicity, H1993, 24 hrs [9]: 11.7%
percent cytotoxicity, H1993, 48 hrs [9]: 45.8%
percent cytotoxicity, H1993, 72 hrs [9]: 73.5%
cytotoxicity, Normal Human Lung Cells, 8 hrs [11]: 23.1
cytotoxicity, Normal Human Lung Cells, 16 hrs [11]: 27.5
cytotoxicity, Normal Human Lung Cells, 24 hrs [11]: 26.9
cytotoxicity, Normal Human Lung Cells, 32 hrs [11]: 29.7
cytotoxicity, Normal Human Lung Cells, 40 hrs [11]: 29.9
cytotoxicity, Normal Human Lung Cells, 48 hrs [11]: 30.9
cytotoxicity, Normal Human Liver Cells, 8 hrs [13]: 7.8
cytotoxicity, Normal Human Liver Cells, 16 hrs [13]: 6.2
cytotoxicity, Normal Human Liver Cells, 24 hrs [13]: 7.4
cytotoxicity, Normal Human Liver Cells, 32 hrs [13]: 17.8
cytotoxicity, Normal Human Liver Cells, 40 hrs [13]: 16.4
cytotoxicity, Normal Human Liver Cells, 48 hrs [13]: 13.6
cytotoxicity, Normal Human Kidney Cells, 8 hrs [15]: 20.5
cytotoxicity, Normal Human Kidney Cells, 16 hrs [15]: 20.9
cytotoxicity, Normal Human Kidney Cells, 24 hrs [15]: 25.8
cytotoxicity, Normal Human Kidney Cells, 32 hrs [15]: 27.6
cytotoxicity, Normal Human Kidney Cells, 40 hrs [15]: 29.7
cytotoxicity, Normal Human Kidney Cells, 48 hrs [15]: 33.9
cytotoxicity, Normal Human Colon Cells, 8 hrs [17]: 15.1
cytotoxicity, Normal Human Colon Cells, 16 hrs [17]: 18.8
cytotoxicity, Normal Human Colon Cells, 24 hrs [17]: 20.8
cytotoxicity, Normal Human Colon Cells, 32 hrs [17]: 28.9
cytotoxicity, Normal Human Colon Cells, 40 hrs [17]: 32.5
cytotoxicity, Normal Human Colon Cells, 48 hrs [17]: 36.4

From patent US20250276018A1 (AFFYIMMUNE THERAPEUTICS, published 2025)
